Target: cation-independent mannose-6-phosphate receptor (CIMPR)
Assay: CIMPR affinity chromatography of spent culture medium, before AEX capture

With “recombinant human α-galactosidase A (rhα-Gal A) (from UniProt P06280 32-429) (enzyme)” as the substance, how does the percent able to bind CIMPR read?
The percent able to bind CIMPR was 80%.

— patent EP4793349A2
